Legend:
aBeta [1] = target: aBeta (UniProt P05067); assay: ELISA
aBeta [2] = target: aBeta (UniProt P05067); assay: ELISA; commercial

Row | Substance | EC50 (aBeta [1]) [nM] | EC50 (aBeta [2]) [nM]
1 | Lecanemab (unshuttled) | 0.105 | 
2 | Lecanemab (commercial) |  | 0.115

Source: patent US20260158147A1
